What all share (assay): Kinase Profiling Assay
Format in all cases: biochemical
Conditions in all cases: peptide 100 μM

Experiment [1] concerns the target eEF-2K(h) (Homo sapiens, UniProt O00418). An outline of the steps:
(§1)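 Specificity of MK2 inhibitory peptides is assessed against a panel of 266 human kinases. Kinase transfers a radiolabeled phosphate from ATP onto a positively charged substrate, which is trapped on a negatively charged filter and quantified by scintillation counting against full-activity control; duplicate determinations.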

The target in experiment [2] is Rsk1(h) (Homo sapiens, UniProt Q15418). An outline of the steps: as §1
Experiment [3] deals with T1, Met(D1246H)(h) (Homo sapiens, UniProt P08581, D1228H).
T1 construct: purchased Millipore
An outline of the steps: as §1

The target in experiment [4] is T2, MuSK(h) (Homo sapiens, UniProt O15146).
T2 construct: purchased Millipore
T2 sequence (O15146 24-869): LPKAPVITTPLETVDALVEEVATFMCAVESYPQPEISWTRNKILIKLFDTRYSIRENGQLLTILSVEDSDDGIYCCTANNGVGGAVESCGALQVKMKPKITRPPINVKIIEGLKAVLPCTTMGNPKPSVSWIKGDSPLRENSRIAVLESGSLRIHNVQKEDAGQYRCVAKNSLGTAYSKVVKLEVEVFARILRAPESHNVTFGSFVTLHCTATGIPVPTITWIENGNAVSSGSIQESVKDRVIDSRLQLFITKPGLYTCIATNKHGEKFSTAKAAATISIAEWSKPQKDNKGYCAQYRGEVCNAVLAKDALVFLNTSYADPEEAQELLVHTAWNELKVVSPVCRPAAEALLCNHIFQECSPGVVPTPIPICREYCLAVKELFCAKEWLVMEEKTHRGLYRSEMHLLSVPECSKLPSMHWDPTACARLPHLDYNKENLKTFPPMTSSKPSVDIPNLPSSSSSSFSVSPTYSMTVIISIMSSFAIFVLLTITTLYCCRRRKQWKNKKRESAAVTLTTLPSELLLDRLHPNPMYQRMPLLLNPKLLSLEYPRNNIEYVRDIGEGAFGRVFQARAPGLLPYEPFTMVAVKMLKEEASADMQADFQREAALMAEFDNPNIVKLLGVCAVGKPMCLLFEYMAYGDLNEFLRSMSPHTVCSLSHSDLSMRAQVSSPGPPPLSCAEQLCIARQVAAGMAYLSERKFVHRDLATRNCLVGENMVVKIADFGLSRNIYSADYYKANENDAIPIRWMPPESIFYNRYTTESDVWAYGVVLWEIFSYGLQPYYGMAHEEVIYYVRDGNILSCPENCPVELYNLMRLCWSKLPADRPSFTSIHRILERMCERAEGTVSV
An outline of the steps:
as §1

Experiment [5] concerns the target BTK(R28H)(h) (Homo sapiens, UniProt Q06187, R28H). An outline of the steps: as §1
Experiment [6] concerns the target CDK1/cyclinB(h) (Homo sapiens, UniProt P06493). The procedure, abridged: as §1
Experiment [7] has as its target Fms(h) (Homo sapiens, UniProt P07333). An outline of the steps:
as §1

In experiment [8] the target is T3, Lck(h) activated (Homo sapiens, UniProt P06239).
T3 construct: purchased Millipore
The procedure, abridged: as §1

Experiment [9] addresses T4, TSSK2(h) (Homo sapiens, UniProt Q96PF2).
T4 sequence (Q96PF2 1-358): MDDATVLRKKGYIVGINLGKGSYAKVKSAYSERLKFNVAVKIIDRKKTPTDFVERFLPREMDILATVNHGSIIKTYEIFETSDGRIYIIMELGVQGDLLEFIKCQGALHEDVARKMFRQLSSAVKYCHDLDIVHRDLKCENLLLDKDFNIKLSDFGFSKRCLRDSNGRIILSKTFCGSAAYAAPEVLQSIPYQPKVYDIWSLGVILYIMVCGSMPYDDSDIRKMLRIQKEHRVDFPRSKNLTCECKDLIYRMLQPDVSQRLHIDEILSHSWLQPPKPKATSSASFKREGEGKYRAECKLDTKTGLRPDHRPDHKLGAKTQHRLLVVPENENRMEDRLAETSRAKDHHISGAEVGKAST
The procedure, abridged: as §1

Experiment [10] has as its target WNK3(h) (Homo sapiens, UniProt Q9BYP7). The procedure, abridged: as §1
In experiment [11] the target is T5, BrSK2(h) (Homo sapiens, UniProt Q8IWQ3).
T5 sequence (Q8IWQ3 1-736): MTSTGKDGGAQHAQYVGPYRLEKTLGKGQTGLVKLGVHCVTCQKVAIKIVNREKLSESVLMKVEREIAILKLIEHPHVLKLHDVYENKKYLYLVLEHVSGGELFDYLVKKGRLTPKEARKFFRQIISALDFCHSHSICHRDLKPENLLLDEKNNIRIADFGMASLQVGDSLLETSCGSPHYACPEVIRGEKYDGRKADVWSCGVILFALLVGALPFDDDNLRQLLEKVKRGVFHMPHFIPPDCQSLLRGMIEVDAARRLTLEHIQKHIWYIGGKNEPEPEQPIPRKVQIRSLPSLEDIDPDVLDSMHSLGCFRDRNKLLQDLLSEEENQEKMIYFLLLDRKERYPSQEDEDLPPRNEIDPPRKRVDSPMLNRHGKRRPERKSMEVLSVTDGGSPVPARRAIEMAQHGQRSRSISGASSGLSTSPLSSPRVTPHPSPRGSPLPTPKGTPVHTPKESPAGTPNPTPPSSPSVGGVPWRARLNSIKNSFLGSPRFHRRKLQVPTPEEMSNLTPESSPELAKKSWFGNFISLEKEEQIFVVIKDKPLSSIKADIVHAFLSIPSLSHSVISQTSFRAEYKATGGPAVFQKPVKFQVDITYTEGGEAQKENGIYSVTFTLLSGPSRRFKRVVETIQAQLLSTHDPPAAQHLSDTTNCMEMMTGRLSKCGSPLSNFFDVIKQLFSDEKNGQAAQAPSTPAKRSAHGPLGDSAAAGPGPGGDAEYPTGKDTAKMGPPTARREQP
An outline of the steps: as §1

Experiment [12] concerns the target BTK(h) (Homo sapiens, UniProt Q06187). An outline of the steps:
as §1

In experiment [13] the target is T6, Snk(h) (Homo sapiens, UniProt Q9NYY3).
T6 construct: purchased Millipore
An outline of the steps: as §1

Experiment [14] deals with ACK1(h) (Homo sapiens, UniProt Q07912). An outline of the steps: as §1

No end group written: not given here.

Chain of ACK1(h) (Q07912 whole entry): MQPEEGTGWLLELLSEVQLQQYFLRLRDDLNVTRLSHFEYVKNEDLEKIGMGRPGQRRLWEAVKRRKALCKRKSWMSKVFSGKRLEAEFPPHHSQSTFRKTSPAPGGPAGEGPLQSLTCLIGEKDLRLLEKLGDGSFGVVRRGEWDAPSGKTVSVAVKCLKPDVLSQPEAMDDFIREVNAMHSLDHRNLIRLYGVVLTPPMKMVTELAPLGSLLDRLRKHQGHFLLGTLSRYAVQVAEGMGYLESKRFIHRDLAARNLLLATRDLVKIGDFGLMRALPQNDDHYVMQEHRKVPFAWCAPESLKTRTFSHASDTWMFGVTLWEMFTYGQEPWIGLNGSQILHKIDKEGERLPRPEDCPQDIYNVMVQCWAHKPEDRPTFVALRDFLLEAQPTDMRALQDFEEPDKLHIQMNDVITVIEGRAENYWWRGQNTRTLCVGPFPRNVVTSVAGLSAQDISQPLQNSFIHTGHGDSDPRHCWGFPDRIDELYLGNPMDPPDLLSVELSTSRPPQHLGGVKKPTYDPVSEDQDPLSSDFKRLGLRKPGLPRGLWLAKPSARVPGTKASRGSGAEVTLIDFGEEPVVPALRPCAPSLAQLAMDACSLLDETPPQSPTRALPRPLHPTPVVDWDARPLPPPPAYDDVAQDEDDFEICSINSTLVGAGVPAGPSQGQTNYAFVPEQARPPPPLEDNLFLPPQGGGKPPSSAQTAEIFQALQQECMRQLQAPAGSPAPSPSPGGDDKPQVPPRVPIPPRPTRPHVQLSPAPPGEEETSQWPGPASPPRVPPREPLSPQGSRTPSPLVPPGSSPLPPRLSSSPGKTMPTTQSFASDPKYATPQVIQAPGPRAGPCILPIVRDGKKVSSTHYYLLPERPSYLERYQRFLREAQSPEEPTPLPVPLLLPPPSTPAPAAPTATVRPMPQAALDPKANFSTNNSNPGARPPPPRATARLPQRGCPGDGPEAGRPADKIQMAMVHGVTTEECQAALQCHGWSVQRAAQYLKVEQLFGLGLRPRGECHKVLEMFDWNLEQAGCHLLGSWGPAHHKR
Chain of Rsk1(h) (Q15418 whole entry): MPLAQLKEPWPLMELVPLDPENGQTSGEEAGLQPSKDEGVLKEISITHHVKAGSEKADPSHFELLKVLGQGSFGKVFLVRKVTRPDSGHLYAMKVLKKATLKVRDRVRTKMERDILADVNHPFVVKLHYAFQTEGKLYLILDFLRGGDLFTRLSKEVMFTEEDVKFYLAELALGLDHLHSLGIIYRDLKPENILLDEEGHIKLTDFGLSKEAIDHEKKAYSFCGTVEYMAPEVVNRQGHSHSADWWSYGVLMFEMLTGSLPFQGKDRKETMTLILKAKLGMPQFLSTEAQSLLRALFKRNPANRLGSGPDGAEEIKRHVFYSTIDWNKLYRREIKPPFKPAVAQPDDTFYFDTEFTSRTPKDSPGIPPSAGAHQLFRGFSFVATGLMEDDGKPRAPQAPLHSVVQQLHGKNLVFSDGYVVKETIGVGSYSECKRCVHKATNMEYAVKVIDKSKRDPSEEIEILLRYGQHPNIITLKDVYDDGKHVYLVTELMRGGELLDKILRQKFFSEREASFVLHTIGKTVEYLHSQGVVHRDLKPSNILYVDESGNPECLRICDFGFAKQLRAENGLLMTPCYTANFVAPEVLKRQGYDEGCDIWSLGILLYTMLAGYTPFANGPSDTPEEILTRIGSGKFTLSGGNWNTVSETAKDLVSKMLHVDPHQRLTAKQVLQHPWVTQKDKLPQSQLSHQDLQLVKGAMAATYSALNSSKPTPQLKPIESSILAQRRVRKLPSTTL
Chain of CDK1/cyclinB(h) (P06493 whole entry): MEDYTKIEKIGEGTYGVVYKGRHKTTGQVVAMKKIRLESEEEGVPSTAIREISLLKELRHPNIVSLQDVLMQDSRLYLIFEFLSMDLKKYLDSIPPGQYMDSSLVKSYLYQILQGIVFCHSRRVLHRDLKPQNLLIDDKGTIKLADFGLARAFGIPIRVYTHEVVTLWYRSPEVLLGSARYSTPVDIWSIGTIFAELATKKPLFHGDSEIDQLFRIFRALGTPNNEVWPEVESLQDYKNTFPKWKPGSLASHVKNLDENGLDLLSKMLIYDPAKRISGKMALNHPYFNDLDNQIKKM
Chain of CDK1/cyclinB(h) (P14635 whole entry partner): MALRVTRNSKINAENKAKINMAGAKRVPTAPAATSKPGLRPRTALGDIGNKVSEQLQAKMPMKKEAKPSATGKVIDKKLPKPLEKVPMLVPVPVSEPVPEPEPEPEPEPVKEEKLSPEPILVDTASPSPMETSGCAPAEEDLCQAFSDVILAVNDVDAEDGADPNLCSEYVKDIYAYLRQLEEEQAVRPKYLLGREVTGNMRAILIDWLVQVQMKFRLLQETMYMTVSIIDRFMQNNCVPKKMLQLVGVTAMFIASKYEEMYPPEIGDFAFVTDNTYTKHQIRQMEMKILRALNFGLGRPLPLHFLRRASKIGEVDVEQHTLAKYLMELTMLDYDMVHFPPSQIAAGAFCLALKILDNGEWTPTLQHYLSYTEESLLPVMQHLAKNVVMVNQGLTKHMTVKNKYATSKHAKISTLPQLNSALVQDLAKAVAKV
Chain of BTK(R28H)(h) (Q06187 whole entry R28H): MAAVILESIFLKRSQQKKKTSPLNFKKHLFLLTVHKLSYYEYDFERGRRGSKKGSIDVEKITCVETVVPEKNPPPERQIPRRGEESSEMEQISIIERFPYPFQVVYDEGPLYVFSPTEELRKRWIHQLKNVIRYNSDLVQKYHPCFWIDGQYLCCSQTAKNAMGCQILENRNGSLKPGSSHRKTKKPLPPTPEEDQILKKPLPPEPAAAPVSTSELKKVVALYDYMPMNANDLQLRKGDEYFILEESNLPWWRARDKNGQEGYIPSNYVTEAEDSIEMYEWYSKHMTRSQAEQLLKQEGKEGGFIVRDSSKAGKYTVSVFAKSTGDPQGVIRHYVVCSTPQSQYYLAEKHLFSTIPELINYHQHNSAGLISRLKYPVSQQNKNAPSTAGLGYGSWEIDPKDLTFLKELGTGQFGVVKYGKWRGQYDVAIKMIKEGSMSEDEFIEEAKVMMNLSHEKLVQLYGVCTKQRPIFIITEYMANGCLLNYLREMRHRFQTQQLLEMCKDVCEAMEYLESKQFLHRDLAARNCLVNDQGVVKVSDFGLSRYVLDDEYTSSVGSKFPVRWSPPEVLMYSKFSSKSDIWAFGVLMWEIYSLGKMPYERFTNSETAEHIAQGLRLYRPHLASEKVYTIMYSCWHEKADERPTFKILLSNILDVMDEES
Chain of BTK(h) (Q06187 whole entry): as the sequence (Q06187 whole entry R28H) above, with H28R counted along it
T3 sequence (P06239 whole entry): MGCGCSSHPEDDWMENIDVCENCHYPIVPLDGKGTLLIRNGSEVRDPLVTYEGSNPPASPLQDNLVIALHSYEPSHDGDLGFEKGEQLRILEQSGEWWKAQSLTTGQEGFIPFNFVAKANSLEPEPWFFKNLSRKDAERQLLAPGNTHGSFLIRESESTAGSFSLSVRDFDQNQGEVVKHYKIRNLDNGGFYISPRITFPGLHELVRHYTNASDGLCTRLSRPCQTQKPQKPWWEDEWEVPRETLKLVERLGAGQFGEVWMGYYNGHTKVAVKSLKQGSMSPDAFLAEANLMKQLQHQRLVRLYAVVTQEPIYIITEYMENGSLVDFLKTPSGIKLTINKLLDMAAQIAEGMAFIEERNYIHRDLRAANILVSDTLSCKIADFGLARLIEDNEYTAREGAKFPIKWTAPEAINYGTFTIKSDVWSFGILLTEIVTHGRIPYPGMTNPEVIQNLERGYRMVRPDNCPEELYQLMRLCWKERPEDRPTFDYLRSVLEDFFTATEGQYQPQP
T6 sequence (Q9NYY3 whole entry): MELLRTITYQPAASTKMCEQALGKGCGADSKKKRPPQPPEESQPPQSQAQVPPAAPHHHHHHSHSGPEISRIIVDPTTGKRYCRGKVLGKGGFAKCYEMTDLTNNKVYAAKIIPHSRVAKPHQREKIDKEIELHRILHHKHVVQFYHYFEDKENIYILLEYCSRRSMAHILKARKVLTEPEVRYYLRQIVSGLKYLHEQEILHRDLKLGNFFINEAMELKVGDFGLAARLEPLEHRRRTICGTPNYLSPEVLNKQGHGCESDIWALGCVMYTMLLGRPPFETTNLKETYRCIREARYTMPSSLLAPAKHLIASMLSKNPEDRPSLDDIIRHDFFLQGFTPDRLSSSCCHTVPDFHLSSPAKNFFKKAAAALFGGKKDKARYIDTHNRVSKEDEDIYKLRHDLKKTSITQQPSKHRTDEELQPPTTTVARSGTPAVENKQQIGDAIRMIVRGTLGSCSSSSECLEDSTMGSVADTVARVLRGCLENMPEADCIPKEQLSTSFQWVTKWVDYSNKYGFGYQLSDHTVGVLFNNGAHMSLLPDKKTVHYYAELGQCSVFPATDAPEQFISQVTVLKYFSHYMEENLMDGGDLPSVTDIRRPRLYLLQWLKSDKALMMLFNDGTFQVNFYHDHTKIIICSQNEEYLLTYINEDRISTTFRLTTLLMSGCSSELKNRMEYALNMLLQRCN

In the case of FAKLAARLYRKALARQLGVAA [MMI-0300], the “% activity” value in [1] was found to be 91%; in [2], 46%; in [3], 125%; in experiment [4] it was 93%; in [5], 74%; in experiment [6], 73%. Moreover, the “% activity” value amounted to 45% in experiment [7]; 243% in experiment [8]; 98% in experiment [9]; 77% in experiment [10]; 83% in experiment [11].
With “HRRIKAWLKKIKALARQLGVAA (Mammal) [MMI-0500]”, the “% activity” value stood at 43% in experiment [1]; 34% in experiment [2]; 150% in experiment [3]; 27% in experiment [4]; 10% in experiment [5]; 18% in experiment [12]. In addition, the “% activity” value in experiment [13] is 122%; in experiment [14], 64%; in [6], 57%; in [7], 14%; in experiment [8] it was 76%; in experiment [9], 92%. In addition, the “% activity” value in experiment [10] came out at 9%; in [11] it was 84%.
As to KAFAKLAARLYRKALARQLGVAA [MMI-0400], the “% activity” value in experiment [1] was found to be 43%; in [2] it was 54%; in experiment [3], 68%; in experiment [4], 93%; in experiment [5], 24%; in experiment [12], 94%. The “% activity” value in [13] stood at 131%; in [14], 95%; in [6] it was 74%; in experiment [7], 37%; in experiment [8], 216%; in experiment [9] it was 94%. Further, the “% activity” value in [10] worked out at 74%; in [11], 86%.
As for YARAAARQARAKALARQLGVAA [MMI-0100], the “% activity” value in experiment [2] is listed as 86%; in [3] it was 99%; in experiment [4], 85%; in experiment [5] it was 91%; in experiment [13], 94%; in experiment [7], 89%. Besides, the “% activity” value is recorded as 100% in experiment [10] and 129% in experiment [11].
Take “YARAAARQARAKALNRQLGVA (Mammal) [MMI-0200]”: the “% activity” value in experiment [3] is listed as 139%; in [12], 100%; in [14], 97%; in experiment [7], 92%; in experiment [8], 90%; in experiment [9], 91%. In experiment [10], the “% activity” value worked out at 97%.

(Values after US20150258192A1, “COMPOSITIONS AND METHODS FOR PREVENTING OR TREATING CHRONIC LUNG ALLOGRAFT DYSFUNCTION (CLAD) AND IDIOPATHIC PULMONARY FIBROSIS (IPF)” (priority 2014, published 2015).)
